Experimental data taken from patent US20130337438A1 (JAPAN HEALTH SCIENCES FOUNDATION, published 2013).

Columns and labels:
HPV35 L1/L2-capsid [1] = molecular target: T1, HPV35 L1/L2-capsid (human papillomavirus type 35, UniProt P27234 1-469; P27232 1-502); test: ELISA on immobilized L1/L2-capsid
T1 construct: Capsid of co-expressed L1 and L2 from 293FT cells; The pseudovirus is the same capsid with a reporter plasmid; also called L1/L2-capsid of type 35; HPV35 pseudovirus
T1 sequence 1: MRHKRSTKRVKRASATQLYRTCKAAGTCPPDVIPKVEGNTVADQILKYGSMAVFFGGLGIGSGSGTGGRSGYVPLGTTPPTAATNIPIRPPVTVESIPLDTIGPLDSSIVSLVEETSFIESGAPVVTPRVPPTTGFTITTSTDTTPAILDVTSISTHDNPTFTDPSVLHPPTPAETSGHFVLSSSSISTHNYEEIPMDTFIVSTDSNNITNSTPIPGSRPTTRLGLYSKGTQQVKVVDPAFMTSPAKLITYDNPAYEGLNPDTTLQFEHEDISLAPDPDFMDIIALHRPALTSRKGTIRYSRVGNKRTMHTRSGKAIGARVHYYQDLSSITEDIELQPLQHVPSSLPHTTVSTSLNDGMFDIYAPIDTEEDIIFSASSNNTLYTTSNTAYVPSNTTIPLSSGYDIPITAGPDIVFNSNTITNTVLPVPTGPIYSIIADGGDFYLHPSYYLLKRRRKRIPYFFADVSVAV
T1 sequence 2: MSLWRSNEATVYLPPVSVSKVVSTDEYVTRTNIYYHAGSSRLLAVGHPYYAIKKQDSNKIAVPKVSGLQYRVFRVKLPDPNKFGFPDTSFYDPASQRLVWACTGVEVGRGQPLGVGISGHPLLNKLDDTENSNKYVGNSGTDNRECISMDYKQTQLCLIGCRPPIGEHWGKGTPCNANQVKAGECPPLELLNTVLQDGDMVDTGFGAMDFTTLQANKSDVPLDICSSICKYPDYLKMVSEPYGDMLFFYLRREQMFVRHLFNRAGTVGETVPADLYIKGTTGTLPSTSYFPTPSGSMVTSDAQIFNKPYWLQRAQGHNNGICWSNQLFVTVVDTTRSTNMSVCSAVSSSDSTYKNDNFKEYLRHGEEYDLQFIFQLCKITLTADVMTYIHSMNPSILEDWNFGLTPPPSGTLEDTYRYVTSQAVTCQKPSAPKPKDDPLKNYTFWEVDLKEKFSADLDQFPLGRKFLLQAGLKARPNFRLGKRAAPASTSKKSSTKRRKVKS

HPV33 L1/L2-capsid = molecular target: T2, HPV33 L1/L2-capsid (human papillomavirus type 33, UniProt P06418 1-467; P06416 1-499); test: ELISA on immobilized L1/L2-capsid, ascites 1:100
T2 construct: Capsid of co-expressed L1 and L2 from 293FT cells; The pseudovirus is the same capsid with a reporter plasmid; also called L1/L2-capsid of type 33; HPV33 pseudovirus
T2 sequence 1: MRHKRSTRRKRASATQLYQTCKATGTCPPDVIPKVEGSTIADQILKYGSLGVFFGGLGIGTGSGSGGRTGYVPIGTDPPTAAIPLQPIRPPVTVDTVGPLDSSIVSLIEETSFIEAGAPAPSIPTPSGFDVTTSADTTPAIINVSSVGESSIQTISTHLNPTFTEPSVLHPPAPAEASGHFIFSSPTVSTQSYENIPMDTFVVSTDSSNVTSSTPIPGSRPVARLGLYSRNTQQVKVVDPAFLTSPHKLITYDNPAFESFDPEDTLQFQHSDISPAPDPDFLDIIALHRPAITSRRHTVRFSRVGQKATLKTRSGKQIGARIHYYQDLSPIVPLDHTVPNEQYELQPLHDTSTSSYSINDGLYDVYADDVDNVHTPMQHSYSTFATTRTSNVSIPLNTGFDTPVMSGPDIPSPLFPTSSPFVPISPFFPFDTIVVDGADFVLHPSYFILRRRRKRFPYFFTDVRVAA
T2 sequence 2: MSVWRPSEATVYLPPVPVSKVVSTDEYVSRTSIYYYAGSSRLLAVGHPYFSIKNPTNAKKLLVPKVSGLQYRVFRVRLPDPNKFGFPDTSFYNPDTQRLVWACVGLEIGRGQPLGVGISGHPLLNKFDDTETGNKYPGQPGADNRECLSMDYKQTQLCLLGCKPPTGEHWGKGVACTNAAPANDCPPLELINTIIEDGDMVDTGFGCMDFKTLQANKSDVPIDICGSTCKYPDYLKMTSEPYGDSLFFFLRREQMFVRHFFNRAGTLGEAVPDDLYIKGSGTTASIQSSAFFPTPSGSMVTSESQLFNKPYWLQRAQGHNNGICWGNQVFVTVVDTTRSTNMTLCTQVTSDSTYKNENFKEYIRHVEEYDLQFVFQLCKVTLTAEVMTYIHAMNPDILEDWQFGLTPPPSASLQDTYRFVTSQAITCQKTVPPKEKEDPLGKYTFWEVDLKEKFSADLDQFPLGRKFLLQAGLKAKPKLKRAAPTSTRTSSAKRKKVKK

HPV35 L1/L2-capsid [2] = molecular target: T1, HPV35 L1/L2-capsid; test: ELISA on immobilized L1/L2-capsid, ascites 1:100

B1: monoclonal antibody 13B (antibody, V domains shown)
VH: DVQLQESGPGLVKPSQSLSLSCTVTGYSITSDSAWNWIRQFPGNKLEWMGYITFSGSTNYNPSLKSRLSITRDTSKNQFFLQLNSVTTEDTATYYCTGPFLDYWGQGTTLTVSS
VL: DVVMTQTPLSLPVSLGDQATISCRSSLSLVLSNRITYLQWYLQKPGQSPKLLIYKVSNRFSGVPDRFSGSGSGTDFTLKISRVEAEDLGVYFCSQSSHFPWTFGGGTKLEIKR
notes: Used as mouse ascites or as antibody purified from ascites; also called Mouse-Mouse hybridoma 13B (FERM BP-11304)
- binding result (HPV35 L1/L2-capsid [1]): no binding (tested: ascites diluted 1:100)

B2: monoclonal antibody 24B (antibody, V domains shown)
VH: EVQLQQSGTVLARPGASVKMSCKASVYSFPSNWMHWVKQRPGQGLEWIGAIYPGTGATRYNQKFKDKAKLTAVTSADTAYMELSSLTDEDSAVYYCTGYSLYWGQGTILTVSS
VL: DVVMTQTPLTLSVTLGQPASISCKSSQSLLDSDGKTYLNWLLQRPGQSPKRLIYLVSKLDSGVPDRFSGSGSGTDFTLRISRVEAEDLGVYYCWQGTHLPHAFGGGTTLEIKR
notes: Used as mouse ascites or as antibody purified from ascites; also called Mouse-Mouse hybridoma 24B (FERM BP-11305)
- binding result (HPV33 L1/L2-capsid): binds
- binding result (HPV35 L1/L2-capsid [2]): binds
